Square brackets hold non-standard residues; d marks the D form. Ends that are not written are not given here. Hyp = O=C(O)[C@@H]1C[C@@H](O)CN1
Legend:
[1] = target: D93, recombinant humanized IgG1 kappa antibody targeting denatured-collagen; assay: competition ELISA on coated human dn-collagen IV
[2] = target: HUI77, murine IgM anti-denatured-collagen monoclonal antibody; assay: competition ELISA on coated dn-collagen IV

Sequence of D93, recombinant humanized IgG1 kappa antibody targeting denatured-collagen (heavy, as listed by the source, chain 1 of 2): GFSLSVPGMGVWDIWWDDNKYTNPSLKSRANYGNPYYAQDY
Sequence of D93, recombinant humanized IgG1 kappa antibody targeting denatured-collagen (light, as listed by the source, chain 2 of 2): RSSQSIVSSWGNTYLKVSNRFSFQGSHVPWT

Question: What does the source list for LPGFPGC (also: hydroxyproline marking, if any, lost) [synthetic peptide No. 9, LPGFPGC (SEQ ID NO: 37)]?
Answer: % inhibition of D93 binding to dn-collagen IV, peptide 1 µM [1]: 8%; % inhibition of D93 binding to dn-collagen IV, peptide 10 µM [1]: 3.5%; % inhibition of D93 binding to dn-collagen IV, peptide 100 µM [1]: 1%; % inhibition of D93 binding to dn-collagen IV, peptide 1000 µM [1]: 6.5%; % inhibition of HUI77 binding to dn-collagen IV, peptide 10 µM [2]: 7%; % inhibition of HUI77 binding to dn-collagen IV, peptide 100 µM [2]: 7.5%; % inhibition of HUI77 binding to dn-collagen IV, peptide 1000 µM [2]: 8.5%

Question: How did the % inhibition of D93 binding to dn-collagen IV, peptide 1 µM [1] turn out when PGP[Hyp]GP[Hyp]GPY [synthetic peptide No. 4, … (SEQ ID NO: 28)] was run?
Answer: The % inhibition of D93 binding to dn-collagen IV, peptide 1 µM was 33.5%.

Question: And the % inhibition of D93 binding to dn-collagen IV, peptide 10 µM [1]?
Answer: The % inhibition of D93 binding to dn-collagen IV, peptide 10 µM was 83%.

Question: What about the % inhibition of D93 binding to dn-collagen IV, peptide 100 µM [1] of the same binder?
Answer: Its % inhibition of D93 binding to dn-collagen IV, peptide 100 µM is 93.5%.

Question: And the % inhibition of D93 binding to dn-collagen IV, peptide 1000 µM [1]?
Answer: The % inhibition of D93 binding to dn-collagen IV, peptide 1000 µM was 93.5%.

Question: And the % inhibition of HUI77 binding to dn-collagen IV, peptide 10 µM [2]?
Answer: Its % inhibition of HUI77 binding to dn-collagen IV, peptide 10 µM is 7%.

Question: What about the % inhibition of HUI77 binding to dn-collagen IV, peptide 100 µM [2] of the same binder?
Answer: The % inhibition of HUI77 binding to dn-collagen IV, peptide 100 µM was 16%.

Question: And the % inhibition of HUI77 binding to dn-collagen IV, peptide 1000 µM [2]?
Answer: The % inhibition of HUI77 binding to dn-collagen IV, peptide 1000 µM was 86.5%.

Question: For PGP[Hyp]GP[Hyp]GP [synthetic peptide No. 1, … (SEQ ID NO: 29)], which % inhibition of D93 binding to dn-collagen IV, peptide 1 µM [1] is on record?
Answer: The % inhibition of D93 binding to dn-collagen IV, peptide 1 µM was 11.5%.

Question: What about the % inhibition of D93 binding to dn-collagen IV, peptide 10 µM [1] of the same binder?
Answer: The % inhibition of D93 binding to dn-collagen IV, peptide 10 µM was 40.5%.

Question: And the % inhibition of D93 binding to dn-collagen IV, peptide 100 µM [1]?
Answer: The % inhibition of D93 binding to dn-collagen IV, peptide 100 µM was 87.5%.

Question: What about the % inhibition of D93 binding to dn-collagen IV, peptide 1000 µM [1] of the same binder?
Answer: Its % inhibition of D93 binding to dn-collagen IV, peptide 1000 µM is 93.5%.

Question: What about the % inhibition of HUI77 binding to dn-collagen IV, peptide 10 µM [2] of the same binder?
Answer: Its % inhibition of HUI77 binding to dn-collagen IV, peptide 10 µM is 10.5%.

Question: What about the % inhibition of HUI77 binding to dn-collagen IV, peptide 100 µM [2] of the same binder?
Answer: Its % inhibition of HUI77 binding to dn-collagen IV, peptide 100 µM is 12.5%.

Question: And the % inhibition of HUI77 binding to dn-collagen IV, peptide 1000 µM [2]?
Answer: The % inhibition of HUI77 binding to dn-collagen IV, peptide 1000 µM was 63%.

B1: synthetic peptide No. 17, GPPGPPGP (SEQ ID NO: 31) (peptide)
peptide: GPXGPXGP
modifications: hydroxyproline at the P positions marked in Tables 13 and 14; marking lost in this text
Question: B1 was tested. Which % inhibition of D93 binding to dn-collagen IV, peptide 1 µM [1] did it give?
Answer: The % inhibition of D93 binding to dn-collagen IV, peptide 1 µM was 9.5%.

Question: And the % inhibition of D93 binding to dn-collagen IV, peptide 10 µM [1]?
Answer: The % inhibition of D93 binding to dn-collagen IV, peptide 10 µM was 21%.

Question: And the % inhibition of D93 binding to dn-collagen IV, peptide 100 µM [1]?
Answer: Its % inhibition of D93 binding to dn-collagen IV, peptide 100 µM is 77%.

Question: What about the % inhibition of D93 binding to dn-collagen IV, peptide 1000 µM [1] of the same binder?
Answer: Its % inhibition of D93 binding to dn-collagen IV, peptide 1000 µM is 92.5%.

Question: What about the % inhibition of HUI77 binding to dn-collagen IV, peptide 10 µM [2] of the same binder?
Answer: The % inhibition of HUI77 binding to dn-collagen IV, peptide 10 µM was 7.5%.

Question: And the % inhibition of HUI77 binding to dn-collagen IV, peptide 100 µM [2]?
Answer: The % inhibition of HUI77 binding to dn-collagen IV, peptide 100 µM was 12%.

Question: What about the % inhibition of HUI77 binding to dn-collagen IV, peptide 1000 µM [2] of the same binder?
Answer: Its % inhibition of HUI77 binding to dn-collagen IV, peptide 1000 µM is 44%.

B2: synthetic peptide No. 15, GPPGPPG (SEQ ID NO: 32) (peptide)
peptide: GPXGPXG
modifications: contains hydroxyproline ('where P is hydroxyproline'); positions marked in the tables but lost in this text
Question: Which results are given for B2?
Answer: % inhibition of D93 binding to dn-collagen IV, peptide 1 µM [1]: 8%; % inhibition of D93 binding to dn-collagen IV, peptide 10 µM [1]: 17%; % inhibition of D93 binding to dn-collagen IV, peptide 100 µM [1]: 64%; % inhibition of D93 binding to dn-collagen IV, peptide 1000 µM [1]: 92.5%; % inhibition of HUI77 binding to dn-collagen IV, peptide 10 µM [2]: 6%; % inhibition of HUI77 binding to dn-collagen IV, peptide 100 µM [2]: 7.5%; % inhibition of HUI77 binding to dn-collagen IV, peptide 1000 µM [2]: 77%

Question: What does the source list for GPPGPPG (also: hydroxyproline at marked P positions, if any, marking lost) [synthetic peptide No. 23, GPPGPPG (SEQ ID NO: 33)]?
Answer: % inhibition of D93 binding to dn-collagen IV, peptide 1 µM [1]: 5%; % inhibition of D93 binding to dn-collagen IV, peptide 10 µM [1]: 4.5%; % inhibition of D93 binding to dn-collagen IV, peptide 100 µM [1]: 1.5%; % inhibition of D93 binding to dn-collagen IV, peptide 1000 µM [1]: 6.5%; % inhibition of HUI77 binding to dn-collagen IV, peptide 10 µM [2]: 1.5%; % inhibition of HUI77 binding to dn-collagen IV, peptide 100 µM [2]: 2%; % inhibition of HUI77 binding to dn-collagen IV, peptide 1000 µM [2]: 1%

Question: With GPPG (also: hydroxyproline marking, if any, lost) [synthetic peptide No. 22, GPPG (SEQ ID NO: 35)] as the binder, how does the % inhibition of D93 binding to dn-collagen IV, peptide 1 µM [1] read?
Answer: The % inhibition of D93 binding to dn-collagen IV, peptide 1 µM was 7%.

Question: And the % inhibition of D93 binding to dn-collagen IV, peptide 10 µM [1]?
Answer: Its % inhibition of D93 binding to dn-collagen IV, peptide 10 µM is 6%.

Question: What about the % inhibition of D93 binding to dn-collagen IV, peptide 100 µM [1] of the same binder?
Answer: Its % inhibition of D93 binding to dn-collagen IV, peptide 100 µM is 3.5%.

Question: What about the % inhibition of D93 binding to dn-collagen IV, peptide 1000 µM [1] of the same binder?
Answer: The % inhibition of D93 binding to dn-collagen IV, peptide 1000 µM was 7.5%.

Question: What about the % inhibition of HUI77 binding to dn-collagen IV, peptide 10 µM [2] of the same binder?
Answer: The % inhibition of HUI77 binding to dn-collagen IV, peptide 10 µM was 2.5%.

Question: And the % inhibition of HUI77 binding to dn-collagen IV, peptide 100 µM [2]?
Answer: The % inhibition of HUI77 binding to dn-collagen IV, peptide 100 µM was 8%.

Question: What about the % inhibition of HUI77 binding to dn-collagen IV, peptide 1000 µM [2] of the same binder?
Answer: The % inhibition of HUI77 binding to dn-collagen IV, peptide 1000 µM was 3.5%.

Question: With F[Hyp]GP[Hyp]GPDGL[Hyp]GSMGP[Hyp]G [synthetic peptide No. 7, … (SEQ ID NO: 36)] as the binder, how does the % inhibition of D93 binding to dn-collagen IV, peptide 1 µM [1] read?
Answer: Its % inhibition of D93 binding to dn-collagen IV, peptide 1 µM is 11%.

Question: What about the % inhibition of D93 binding to dn-collagen IV, peptide 10 µM [1] of the same binder?
Answer: Its % inhibition of D93 binding to dn-collagen IV, peptide 10 µM is 43%.

Question: What about the % inhibition of D93 binding to dn-collagen IV, peptide 100 µM [1] of the same binder?
Answer: Its % inhibition of D93 binding to dn-collagen IV, peptide 100 µM is 89.5%.

Question: And the % inhibition of D93 binding to dn-collagen IV, peptide 1000 µM [1]?
Answer: Its % inhibition of D93 binding to dn-collagen IV, peptide 1000 µM is 93.5%.

Question: And the % inhibition of HUI77 binding to dn-collagen IV, peptide 10 µM [2]?
Answer: The % inhibition of HUI77 binding to dn-collagen IV, peptide 10 µM was 4.5%.

Question: And the % inhibition of HUI77 binding to dn-collagen IV, peptide 100 µM [2]?
Answer: The % inhibition of HUI77 binding to dn-collagen IV, peptide 100 µM was 9%.

Question: What about the % inhibition of HUI77 binding to dn-collagen IV, peptide 1000 µM [2] of the same binder?
Answer: The % inhibition of HUI77 binding to dn-collagen IV, peptide 1000 µM was 62%.

Source: US20080008707A1, “Denatured collagen peptides and uses thereof” (Cell-Matrix, Inc., priority 2006, published 2008)
